Assays:
Assay type in all cases: in vivo, mouse
[1] = system: obese C57BL/6 mice; assay: Open field test, HFD mice treated with Reparixin; conditions: HFD C57BL/6 mice; Reparixin 30 mg/kg s.c. twice per day for 2 weeks vs non-treated
Protocol: (§1) Reparixin L-lysine salt (MedChemExpress, #HY-15252) or L-Lysine hydrochloride (MedChemExpress, #HY-N0470) was dissolved in H2O was administered to obese C57BL/6 mice (fed for 2 months with high-fat diet) via subcutaneous injection (30 mg/kg) twice per day for 2 weeks. 2 hours after the last injection mice were tested in open field and elevated plus maze and afterwards dissected. Locomotor activity and anxiety-like behavior of mice were assessed in sound-insulated, rectangular activity chambers (Med Associates Inc., St Albans, Vt., USA: W×L×D=27 cm×27 cm×20 cm with continually running fans, infrared lasers, and sensors). Beam breaks were assessed in 2-minute bins over 30 minutes, converted automatically to current mouse location and distance travelled (cm), and recorded on a computer with Med-PC software Version 4.0. Before the test, mice were acclimatized to the room for 1-1.5 hours before being introduced into the chambers. Mice were habituated for 5 minutes in the Open Field chamber (without recording) then placed for another 5 minutes in the home cage. Afterwards, mice were introduced back to the chambers and all mouse movements were recorded for 30 minutes. Anxiety was quantified by the distance mice travelled in the central 25% of the chamber (zone 1) as a function of the total distance mice travelled and by frequencies of entries into zone 1.

[2] = system: obese C57BL/6 mice; assay: Elevated plus maze, HFD mice treated with Reparixin; conditions: HFD C57BL/6 mice; Reparixin 30 mg/kg s.c. twice per day for 2 weeks vs non-treated
Protocol: (§2) Reparixin L-lysine salt (MedChemExpress, #HY-15252) or L-Lysine hydrochloride (MedChemExpress, #HY-N0470) was dissolved in H2O was administered to obese C57BL/6 mice (fed for 2 months with high-fat diet) via subcutaneous injection (30 mg/kg) twice per day for 2 weeks. 2 hours after the last injection mice were tested in open field and elevated plus maze and afterwards dissected. A grey colored elevated plus maze apparatus was used. Two open arms (25×5 cm) and two closed arms (25×5 cm) were attached at right angles to a central platform (5×5 cm). The apparatus was set 40 cm above the floor. Mice were first acclimatized to the room for 1-1.5 hours. Mice were then placed individually on the central platform with their back to one of the open arms. Before the test, mice were habituated for 1 minute to the maze, then placed back in the home cage for 5 minutes. Mice were tested for 5 minutes during which they could freely explore the apparatus. Tracking software (Ethovision) recognizes mouse head, central body point, and the base of the tail. Anxiety was quantified by frequency of and time spent during head pokes/dips toward open arms. Higher anxiety is indicated by a lower frequency of movement into open arms and less time spent there.

[3] = Circulating Cxcl1 after Cxcl1 injection in lean C57BL/6 mice; conditions: Cxcl1 5 μg/kg i.p. daily for 7 days vs vehicle
Protocol: (§3) Recombinant CXCL1 (Peprotech, #250-11) or vehicle (PBS) was administered to lean C57BL/6 via i.p. injection (5 μg/kg in PBS) daily for 7 days. 2 hours after the last injection mice were tested in open field and elevated plus maze and afterwards dissected.
Serum levels of cytokines: Eotaxin, G-Csf, Tnf-α, Il-6, Ifn-γ, Il-1α, Il-1β, Il-17, Il-2, Kc/Cxcl1, Mcp-1, M-Csf, Mig, Mip-1α, and Mip-1β were determined using a Multiplexing LASER Bead Assay (Mouse Cytokine Array/Chemokine Array 31-Plex (MD31), Eve Technologies; Canada). Blood was withdrawn from mice by punctuation of the sub-mandibular vein at the day of dissection before an animal was sacrificed. 50 μL of serum were shipped to Eve Technologies on dry ice. Due to high variability of data an unbiased elimination of outliers was performed using ROUT's method (Graphpad 7 Prism). The same panel was used to detect SASP in MAF and 50 μl of media was shipped to Eve Technologies on dry ice.

[4] = system: lean C57BL/6; assay: Open field test after Cxcl1 injection; conditions: Cxcl1 5 μg/kg i.p. daily for 7 days vs vehicle
Protocol: as §3
as §1, with “Locomotor” for “Reparixin L-lysine salt (MedChemExpress, #HY-15252) or L-Lysine hydrochloride (MedChemExpress, #HY-N0470) was dissolved in H2O was administered to obese C57BL/6 mice (fed for 2 months with high-fat diet) via subcutaneous injection (30 mg/kg) twice per day for 2 weeks. 2 hours after the last injection mice were tested in open field and elevated plus maze and afterwards dissected. Locomotor”

[5] = system: lean C57BL/6; assay: Elevated plus maze after Cxcl1 injection; conditions: Cxcl1 5 μg/kg i.p. daily for 7 days vs vehicle
Protocol: as §3
as §2, with “A” for “Reparixin L-lysine salt (MedChemExpress, #HY-15252) or L-Lysine hydrochloride (MedChemExpress, #HY-N0470) was dissolved in H2O was administered to obese C57BL/6 mice (fed for 2 months with high-fat diet) via subcutaneous injection (30 mg/kg) twice per day for 2 weeks. 2 hours after the last injection mice were tested in open field and elevated plus maze and afterwards dissected. A”

Molecule	behavior in the open field box [1]	behavior in the EPM [2]	circulating Cxcl1 in blood plasma [3]	circulating Cxcl1 in blood plasma ([3]; listed as Cxcl-1)	anxiety-like behavior, open field (distance in the central area) [4]	anxiety-like behavior, open field (distance in the central area) ([4]; listed as Cxcl-1)	anxiety-like behavior, EPM (head entries in the open arms) [5]	anxiety-like behavior, EPM (head entries in the open arms) ([5]; listed as Cxcl-1)
CC(C)Cc1ccc([C@@H](C)C(=O)NS(C)(=O)=O)cc1 [Reparixin]	no difference	no difference	–	–	–	–	–	–
Cxcl1: Recombinant CXCL1 (Peprotech, #250-11) injected i.p. into lean mice (protein, UniProt P12850 25-96, looked up) Growth-regulated alpha protein: APIANELRCQCLQTMAGIHLKNIQSLKVLPSGPHCTQTEVIATLKNGREACLDPEAPLVQKIVQKMLKGVPK	–	–	increased levels	significantly increased	no difference	not different	no difference	not different

— patent publication US20210379068A1, “METHODS AND MATERIALS FOR TREATING NEUROPSYCHIATRIC DISORDERS” (Mayo Foundation for Medical Education and Research, priority 2018, published 2021)
